Assay in all cases: co-sedimentation
In test [1] the target is paclitaxel-stabilized microtubules (bovine brain tubulin) (bovine) (UniProt Q6B856).
For test [2] the target is unchanged. This is another data set of the same source.
Test [3] has the same target. This is another data set of the same source.
The target is the same in test [4]. This is another data set of the same source.
Test [5] has the same target. This is another data set of the same source.

By Kd is commonly meant the concentration at which binding is half-saturated. Lower therefore signals a tighter complex. A word on the stoichiometry N: it is a count of units in the complex or per binding partner.

Where two headings read alike, the source gives them in different places.

Chain of paclitaxel-stabilized microtubules (bovine brain tubulin) (bovine) (Q6B856 whole entry, looked up): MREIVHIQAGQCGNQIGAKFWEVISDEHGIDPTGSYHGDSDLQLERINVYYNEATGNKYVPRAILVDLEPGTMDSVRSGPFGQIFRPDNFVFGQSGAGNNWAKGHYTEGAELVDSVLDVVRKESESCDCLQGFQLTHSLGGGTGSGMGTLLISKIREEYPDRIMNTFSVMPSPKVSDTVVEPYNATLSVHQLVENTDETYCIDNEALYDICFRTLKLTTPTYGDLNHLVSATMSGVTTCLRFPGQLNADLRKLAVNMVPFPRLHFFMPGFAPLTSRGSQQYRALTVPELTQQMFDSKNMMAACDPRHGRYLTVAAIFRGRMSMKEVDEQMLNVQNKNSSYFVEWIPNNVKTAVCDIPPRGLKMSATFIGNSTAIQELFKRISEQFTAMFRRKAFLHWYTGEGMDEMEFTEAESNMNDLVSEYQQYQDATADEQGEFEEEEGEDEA

“Eg5-CL8-MBP (MBP-His6-TEV-Eg5-CL8) (from UniProt P27895 261-359) (domain or fragment)”: the Kd in test [1] and in test [2] was 0.1 µM throughout. The stoichiometry N (motor per tubulin dimer) in test [2] was found to be 1.

Take “wild type monomeric Cin8 motor domain with thioredoxin tag (Cin8-trx) (domain or fragment)”: in test [2], the dissociation constant (Kd) was 0.007 µM and the stoichiometry N is 2.2.

Substance “Eg5-KL8: monomeric Eg5 motor domain with the loop-8 insert of Kip1 (domain or fragment)” showed a Kd in test [3] of 0.44 µM. In addition, in test [2], the Kd turned out to be 0.1 µM and the stoichiometry N came to 1.3.

“Cin8-EL8 (tagless): monomeric Cin8 motor with the loop-8 insert of Eg5 (domain or fragment)” displayed a Kd in test [4] of 3 µM. Besides, in test [5], the Kd was 2.9 µM. Besides, in test [2], the Kd turned out to be 0.1 µM, the stoichiometry N is 1.4 and the stoichiometry N (motor bound per tubulin dimer) was found to be 1.

Source of the values: doi:10.1101/525329.
